Assay [1] deals with T1, human leptin (human, UniProt P41159 22-167).
T1 construct: Bought recombinant protein coated on ELISA plates; also called Leptin protein; LEPTIN antigen
Briefly: ELISA titration on coated leptin, 4 parameter fit. The protocol:
ELISA titration was used to determine the binding affinity of a panel of monoclonal antibodies to LEPTIN antigen. Binding constants (KD and/or EC 50) of a panel of monoclonal antibodies were estimated using the 4 parameter curve fitting with Prism GraphPad program. For Biacore analysis, all experiments were performed at 25° C. at a flow rate of 45 μl/min. An anti-human IgG Fc antibody (from ThermoFisher, at 50 μg/ml each in acetate buffer, pH 5.0) was immobilized onto a carboxymethyl dextran sensorchip (CM5) using amine coupling procedures based on instruction from the manufacturer. Purified rabbit/human chimeric antibody to be tested was diluted at a concentration of 5 μg/ml in 0.5% P20, HBS-EP buffer and injected on FC2 to reach 500 to 1000 RU. FC1 was used as the reference cell. Specific signals correspond to the difference of signals obtained on FC2 versus FC1. The analyte (recombinant human LEPTIN, apparent molecular weight 16 kDa on SDS-PAGE gel) was injected during 90 sec at series of concentration dilutions (100, 50, 25, 12.5, 6.25, and 3.13, 1.56 nM) in 0.5% P20, HBS-EP buffer. These concentrations were prepared from stock solution in 0.5% P20, HBS-EP. The dissociation phase of the analyte was monitored over a 30 minutes period. Running buffer was also injected under the same conditions as a double reference. After each running cycle, both flow cells were regenerated by injecting 20 to 45 μl of Glycine-HCl buffer pH 1.5. Binding KD on LEPTIN was calculated by koff/kₒₙ kinetic rate for each LEPTIN monoclonal antibodies (Table 3).
A general note: An ELISA detects its analyte on a solid surface through an enzyme-linked reagent.

The target in assay [2] is T1, human leptin. Briefly: ELISA, human leptin coated on plate, 1:20 diluted culture supernatant. How it is done:
Binding of LEPTIN by monoclonal antibodies was first screened by ELISA using supernatants collected from the B cell cultures. Human or mouse LEPTIN protein (Sino Biologicals) was coated on a 96-well high binding plate over night at 4° C. in PBS. B cell culture supernatants (5 μl medium and 95 μl of PBS) were added at for binding to LEPTIN antigen coated on the plate. Bound antibody was detected using a secondary antibody against rabbit IgG conjugated with HRP and TMB substrate.

Data on 5 molecules can be found in patent US20250042991A1 (University of Texas, published 2025).

One may read the EC50 as the concentration giving half of the maximal effect. Read a low EC50 as an effect from little substance.

T1 sequence (P41159 22-167 limits assumed): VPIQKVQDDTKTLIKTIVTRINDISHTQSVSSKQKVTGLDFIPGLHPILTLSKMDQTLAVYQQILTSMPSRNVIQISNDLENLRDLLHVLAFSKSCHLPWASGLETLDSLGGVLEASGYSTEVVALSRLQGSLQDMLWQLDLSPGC

B1: hLept-1 (antibody, V domains shown)
VH: QVQLQQLGPGLVKPSETLSLTCNVSGGSVSRGSHYWTWIRQPPGKGLEWIGYIHTDGSTNFNPSLKSRVTMSLDRSRNQFSLTLSSVTATDTAVYYCAREPGGALNFWGQGTLVTVSS
VL: not shown
notes: From a human scFv phage library, expressed as full human IgG in HEK293 cells
In assay [1], B1 had an EC50 of 0.001 to 0.5 µM. In assay [2], the “absorbance at 450 nM” value amounted to 0.071 absorbance at 450 nM.

B2: hLept-6 (antibody, V domains shown)
VH: QVQLMQSGAEVKKPGASVKVSCKASGYTFTSYYMHWVRQAPGQGLEWMGIINPSGGSTSYAQKFQGRVTMTRDTSTSTVYMELSSLRSEDTAVYYCARGFGYGGKALDYWGQGTTVTVSS
VL: DIQMTQSPPTLSASVGDRVTITCRASQNINSRLAWYQQKPGRAPKLLIYKASTLESGVPSRFSGSGSGTEFTLTISSLQPDDFATYYCQQFDKYSITFGGGTKMEIK
notes: Expressed as full human IgG in HEK293 cells
In assay [1], B2 registered an EC50 of 0.001 to 0.5 µM. For the same molecule, the “absorbance at 450 nM” value in assay [2] amounted to 0.663 absorbance at 450 nM.

B3: hLept-5 (antibody, V domains shown)
VH: QVKLVEWSLSVVQPGRSLRLSCAASGFTFSSYAMHWVRQAPGKGLEWVAVISYDGSNKYYADSVKGRFTISRDNSKNTLYLQMNSLRAEDTAVYYCARGREYYYYMDVWGKGTTVSVSS
VL: QSVLTQPPSVSVAPGKTARITCGGYNIARKSVHWYQQKPGQAPVLVMYNDNDRPSGIPERFSGSNSGNTATLTISRVEAGDEADYYCQVWDNSDYVFGTGTKVTVL
notes: as for B2
Molecule B3 returned a concentration giving a half-maximal response (EC50) in assay [1] of 0.001 to 0.5 µM. In assay [2], the “absorbance at 450 nM” value came out at 0.739 absorbance at 450 nM.

B4: hLept-2 (antibody, V domains shown)
VH: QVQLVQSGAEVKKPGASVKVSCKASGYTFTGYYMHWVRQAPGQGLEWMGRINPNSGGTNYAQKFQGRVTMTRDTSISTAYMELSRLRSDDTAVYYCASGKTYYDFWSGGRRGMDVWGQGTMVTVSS
VL: DIQLTQSPSSLSASVGDRVTITCRAGQSVSRYLNWFQQKPGKAPKLLIYTSSNLQSGVPSRFSASGSGTDFTLTISSLQPEDFATYYCQQTYSTPWTFGQGTKLEIK
notes: as for B2
For the molecule B4, the EC50 in assay [1] lay within 0.001 to 0.5 µM. In assay [2], the “absorbance at 450 nM” value is 2.57 absorbance at 450 nM.

B5: hLept-3 (antibody, V domains shown)
VH: QVQLVQSGAEVKKPGSSVKVSCKASGGTFSSYAISWVRQAPGQGLEWMGGIIPIFGTANYAQKFQGRVTITADESTSTAYMELSSLRSEDTAVYYCARSQVPSSYYYGMDVWGQGTMVTVSS
VL: QSVLTQPPSVSGAPGQRVTISCTGGNSNIGAGYHVHWYQQLPGAAPKLLIYGDTNRPSGVPDRFSGSQSGTSASLAITGLQADDEADYYCQSYDRSRGGWFFGGGTQLTVL
notes: Expressed as full human IgG in HEK293 cells; also called hLetp-3
In assay [1], B5 showed an EC50 of 0.001 to 0.5 µM. The “absorbance at 450 nM” value in assay [2] is 0.19 absorbance at 450 nM.
